B1: DNA-binding protein Ikaros (Homo sapiens), Q13422-1 (parent)
chain: MDADEGQDMSQVSGKESPPVSDTPDEGDEPMPIPEDLSTTSGGQQSSKSDRVVASNVKVETQSDEENGRACEMNGEECAEDLRMLDASGEKMNGSHRDQGSSALSGVGGIRLPNGKLKCDICGIICIGPNVLMVHKRSHTGERPFQCNQCGASFTQKGNLLRHIKLHSGEKPFKCHLCNYACRRRDALTGHLRTHSVGKPHKCGYCGRSYKQRSSLEEHKERCHNYLESMGLPGTLYPVIKEETNHSEMAEDLCKIGSERSLVLDRLASNVAKRKSSMPQKFLGDKGLSDTPYDSSASYEKENEMMKSHVMDQAINNAINYLGAESLRPLVQTPPGGSEVVPVISPMYQLHKPLAEGTPRSNHSAQDSAVENLLLLSKAKLVPSEREASPSNSCQDSTDTESNNEEQRSGLIYLTNHIAPHARNGLSLKEEHRAYDLLRAASENSQDALRVVSTSGEQMKVYKCEHCRVLFLDHVMYTIHMGCHGFRDPFECNMCGYHSQDRYEFSSHITRGEHRFHMS
B2: Zinc finger protein Aiolos (Homo sapiens), Q9UKT9 (parent)
chain: MEDIQTNAELKSTQEQSVPAESAAVLNDYSLTKSHEMENVDSGEGPANEDEDIGDDSMKVKDEYSERDENVLKSEPMGNAEEPEIPYSYSREYNEYENIKLERHVVSFDSSRPTSGKMNCDVCGLSCISFNVLMVHKRSHTGERPFQCNQCGASFTQKGNLLRHIKLHTGEKPFKCHLCNYACQRRDALTGHLRTHSVEKPYKCEFCGRSYKQRSSLEEHKERCRTFLQSTDPGDTASAEARHIKAEMGSERALVLDRLASNVAKRKSSMPQKFIGEKRHCFDVNYNSSYMYEKESELIQTRMMDQAINNAISYLGAEALRPLVQTPPAPTSEMVPVISSMYPIALTRAEMSNGAPQELEKKSIHLPEKSVPSERGLSPNNSGHDSTDTDSNHEERQNHIYQQNHMVLSRARNGMPLLKEVPRSYELLKPPPICPRDSVKVINKEGEVMDVYRCDHCRVLFLDYVMFTIHMGCHGFRDPFECNMCGYRSHDRYEFSSHIARGEHRALLK

Two variants from IntAct's records for PubMed 24292623 can be followed below.

The variants in one assay derive from B1. As to conditions: with crbn_human CRBN.
On to Q146H, for which the “effect of a mutation on the interaction” value is “decreasing interaction strength”.

In the next assay the parent is B2. As to conditions: with crbn_human CRBN.
Turning to Q147H, the “effect of a mutation on the interaction” value was “decreasing interaction strength”.
